Assay results reported in IntAct's records for PubMed 20676127.

B1: Inhibitor of growth protein 2 (Homo sapiens), Q9H160 (parent)
chain: MLGQQQQQLYSSAALLTGERSRLLTCYVQDYLECVESLPHDMQRNVSVLRELDNKYQETLKEIDDVYEKYKKEDDLNQKKRLQQLLQRALINSQELGDEKIQIVTQMLELVENRARQMELHSQCFQDPAESERASDKAKMDSSQPERSSRRPRRQRTSESRDLCHMANGIEDCDDQPPKEKKSKSAKKKKRSKAKQEREASPVEFAIDPNEPTYCLCNQVSYGEMIGCDNEQCPIEWFHFSCVSLTYKPKGKWYCPKCRGDNEKTMDKSTEKTKKDRRSR
partner: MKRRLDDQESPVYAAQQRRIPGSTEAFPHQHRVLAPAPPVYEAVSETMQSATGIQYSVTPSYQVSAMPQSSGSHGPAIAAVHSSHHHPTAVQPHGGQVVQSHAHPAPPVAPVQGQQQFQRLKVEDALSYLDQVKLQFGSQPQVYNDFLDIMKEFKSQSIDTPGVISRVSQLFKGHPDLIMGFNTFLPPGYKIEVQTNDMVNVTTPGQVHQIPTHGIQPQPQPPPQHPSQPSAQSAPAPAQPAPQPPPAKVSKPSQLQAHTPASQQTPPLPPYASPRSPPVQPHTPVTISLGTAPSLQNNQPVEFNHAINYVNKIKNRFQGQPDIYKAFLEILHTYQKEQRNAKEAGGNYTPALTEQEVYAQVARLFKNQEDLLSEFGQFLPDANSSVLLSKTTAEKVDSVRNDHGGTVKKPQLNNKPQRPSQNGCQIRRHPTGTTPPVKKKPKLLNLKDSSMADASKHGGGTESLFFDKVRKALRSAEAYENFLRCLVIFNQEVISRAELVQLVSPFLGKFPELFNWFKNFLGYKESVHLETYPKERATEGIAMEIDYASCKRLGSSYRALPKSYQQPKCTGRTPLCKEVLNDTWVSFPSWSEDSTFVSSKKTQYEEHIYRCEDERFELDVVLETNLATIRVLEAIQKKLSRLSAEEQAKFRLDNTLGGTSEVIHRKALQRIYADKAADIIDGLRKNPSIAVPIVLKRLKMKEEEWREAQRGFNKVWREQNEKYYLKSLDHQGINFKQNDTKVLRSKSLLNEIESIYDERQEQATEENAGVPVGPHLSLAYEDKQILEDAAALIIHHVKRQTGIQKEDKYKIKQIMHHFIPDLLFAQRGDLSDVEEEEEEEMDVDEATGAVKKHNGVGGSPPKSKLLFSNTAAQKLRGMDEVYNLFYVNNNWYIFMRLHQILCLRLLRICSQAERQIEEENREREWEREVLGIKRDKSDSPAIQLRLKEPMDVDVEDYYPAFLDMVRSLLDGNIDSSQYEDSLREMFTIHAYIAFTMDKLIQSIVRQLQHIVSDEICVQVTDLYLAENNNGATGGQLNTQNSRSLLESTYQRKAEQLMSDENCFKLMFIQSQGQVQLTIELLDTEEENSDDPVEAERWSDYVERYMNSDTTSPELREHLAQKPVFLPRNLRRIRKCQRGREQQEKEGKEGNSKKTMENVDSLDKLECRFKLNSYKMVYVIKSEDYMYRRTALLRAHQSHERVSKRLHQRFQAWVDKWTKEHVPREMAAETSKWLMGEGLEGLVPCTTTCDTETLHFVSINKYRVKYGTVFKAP

Variants of: B1
Details: with sin3a_human SIN3A

effect of a mutation on the interaction | Variant
decreasing interaction | E197A
decreasing interaction | K195R
